Experiment in all cases: SPR
The target of experiment [1] is T1, human CD25-extracellular domain (CD25-ECD) (UniProt P01589 22-240).
T1 chain: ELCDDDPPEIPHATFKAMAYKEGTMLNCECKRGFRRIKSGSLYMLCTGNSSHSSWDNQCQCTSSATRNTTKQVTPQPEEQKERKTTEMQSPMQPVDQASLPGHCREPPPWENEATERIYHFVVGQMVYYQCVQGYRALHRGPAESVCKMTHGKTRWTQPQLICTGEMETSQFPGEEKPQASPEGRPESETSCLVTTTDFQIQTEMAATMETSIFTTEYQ

The target of experiment [2] is T1, human CD25-extracellular domain ….
A further experiment concerns the target cCD25.
Experiment [3] addresses T1, human CD25-extracellular domain ….
The target is the same in experiment [4].
The target is the same in experiment [5].
Experiment [6] has the same target.
Experiment [7] has the same target.
The target is the same in experiment [8].
The target is the same in experiment [9].
Experiment [10] has the same target.
Experiment [11] has the same target.
Another experiment has as its target 83B05Hu1_A.

These results are taken from patent US20260258143A1 (published 2026).

Numbering of substitutions follows the chain as printed. Like-named read-outs stand apart in the source and are kept apart here.

B1: ODY-N1783Hu1 (antibody, V domains shown)
VH: EVQLLESGGGLAQPGGSLRLSCAASGFTFSNYAMSWARQAPGKGLEWVSGIYSDGSGTYYADSVKGRFTISRDNAKNTVYLQMNSLRPEDTAVYYCSKGARSGSYYPWDDVWGQGTQVTVSS
Consider B1, for which, in [1], the dissociation constant Kd was 107 nM.

B2: ODY-48D11Hu1 (antibody, V domains shown)
VH: B1 VH with A12V, S97A, A100R, R101N, W108F, V111Y
Take B2: in experiment [1], binding was put at a Kd of 102 nM.

B3: ODY-N1769Hu1 (antibody, V domains shown)
VH: B1 VH with A37V, A100R, R101H, D110E, V111Y
B3 had a Kd in [1] of 49 nM.

B4: ODY-N1811Hu1 (antibody, V domains shown)
VH: B1 VH with G55S, S97A, A100R, R101G, W108L, V111Y
Turning to B4, the Kd in experiment [2] came to 348 nM.

B5: ODY-N1808Hu1 (antibody, V domains shown)
VH: B1 VH with A37V, S97A, K98T, A100K, R101H, V111Y
Molecule B5 displayed a Kd in [2] of 241 nM.

B6: 46A3 (VHH)
VHH: B1 VH with S97A, A100R, R101N, V111Y
In the experiment with cCD25, B6 came in with a Kd of 34 nM.

B7: ODY-N1812Hu1 (antibody, V domains shown)
VH: B1 VH with G55S, S97A, A100R, R101G, S104G, W108F, V111Y
With B7, the Kd in experiment [2] was found to be 149 nM.

B8: ODY-N1810Hu1 (antibody, V domains shown)
VH: B1 VH with G55S, S97V, A100R, R101G, W108F, V111Y
Consider B8, for which the Kd in experiment [2] came to 62 nM.

B9: ODY-48C10Hu1 (antibody, V domains shown)
VH: B1 VH with A37T, S97A, A100R, R101N, W108F, V111Y
Turning to B9, in experiment [1], the Kd came to 66 nM.

B10: ODY-N2016Hu1 (antibody, V domains shown)
VH: EVQLLESGGGLVQPGGSLRLSCAASGRTFADFGMGWFRQAPGKEREFVAAISRSGGRTRYADSVKGRFTISRDDAKNTVYLQMNSLRPEDTAVYYCAASYFLLAITISGYDYWGQGTQVTVSS
As for B10, the Kd in experiment [3] worked out at 12 nM.

B11: ODY-N2027Hu1 (antibody, V domains shown)
VH: EVQLLESGGGLVQPGGSLRLSCAASGRTFSSYGMGWFRQAPGKEREFVAAISQSGGRTRYADSVKGRFTISRDNAKNTVYLQMNSLRPEDTAVYYCAATNFLIATAISAYDYWGQGTQVTVSS
Molecule B11 had a Kd in experiment [4] of 10 nM.

B12: ODY-N2022Hu1 (antibody, V domains shown)
VH: B11 VH with N100K, A106T
As to B12, binding in experiment [3] was put at a Kd of 17 nM.

B13: ODY-N2017Hu1 (antibody, V domains shown)
VH: B11 VH with T105A, A106T
With B13, the Kd in experiment [3] amounted to 13 nM.

B14: ODY-N2025Hu1 (antibody, V domains shown)
VH: B11 VH with F101V, A106T
On to B14, for which, in experiment [4], the Kd was found to be 14 nM.

B15: ODY-N2024Hu1 (antibody, V domains shown)
VH: B11 VH with A75V, A106T, Y110H
Take B15: in experiment [3], binding was put at a Kd of 19 nM.

B16: ODY-N2011Hu1 (antibody, V domains shown)
VH: B10 VH with D31S, R53Q, S54G, I105T
Molecule B16 returned a Kd in experiment [5] of 9.4 nM.

B17: humanized anti-CD25 V-body 47D3 (VHH)
VHH: B11 VH with L20V, S31W, Y32N, T99S, N100D, I103L, A106T
Take B17: the Kd in [6] and in experiment [7] was 1.6 nM throughout.

B18: ODY-N2010Hu1 (antibody, V domains shown)
VH: B11 VH with A49V, Q53G, T99S, N100D, A106S
Consider B18, for which, in experiment [5], binding was put at a Kd of 9.4 nM.

B19: ODY-N2005Hu1 (antibody, V domains shown)
VH: B11 VH with A106T
The molecule B19 gave a Kd in experiment [5] of 13 nM.

B20: ODY-N2026Hu1 (antibody, V domains shown)
VH: B11 VH with L102P, A106T
Consider B20, for which the Kd in experiment [4] amounted to 11 nM.

B21: ODY-N2008Hu1 (antibody, V domains shown)
VH: B10 VH with D31S, S54G, I105T
With B21, in [5], binding was put at a Kd of 22 nM.

B22: ODY-N1998Hu1 (antibody, V domains shown)
VH: EVQLVESGGGLVQPGGSLRLSCAASGRRFSTLIMGWYRQAPGKQRELVATIERGGTPTYADSVKGRFTISRDNAKNTVYLQMNSLRPEDTAVYYCKTLRYWGQGTQVTVSS
B22: in experiment [8], binding was put at a Kd of 31 nM.

B23: ODY-N1955Hu1 (antibody, V domains shown)
VH: B22 VH with R28S, G35A, K96N, T97A, R99G
B23 registered an equilibrium dissociation constant (Kd) in [9] of 13 nM.

B24: ODY-N1978Hu1 (antibody, V domains shown)
VH: B22 VH with R28S, P57T, K96N, T97A, Y100D
B24 came in with a dissociation constant Kd in experiment [10] of 26 nM.

B25: ODY-N1970Hu1 (antibody, V domains shown)
VH: B22 VH with R28S, P57T, K96N, T97A, R99L
Molecule B25 had a Kd in [9] of 12 nM.

B26: ODY-N2000Hu1 (antibody, V domains shown)
VH: B22 VH with R28K, G54D, G55D, P57T, K96T
Regarding B26, in experiment [8], the Kd turned out to be 14 nM.

B27: ODY-N1961Hu1 (antibody, V domains shown)
VH: B22 VH with R28S, G35A, P57T, I69A, K96N, T97A, R99G
Turning to B27, the affinity in experiment [9], expressed as Kd, was 11 nM.

B28: ODY-N1999Hu1 (antibody, V domains shown)
VH: B22 VH with R28K, G54D, G55D, P57T
B28: binding in experiment [8] was put at a Kd of 13 nM.

B29: ODY-N2003Hu1 (antibody, V domains shown)
VH: B22 VH with R28K, G35A, E52D, G54D, P57T, K96S
Molecule B29 had a Kd in [11] of 7.6 nM.

B30: ODY-N2002Hu1 (antibody, V domains shown)
VH: B22 VH with A24V, R28S, G35A, E52D, P57T
B30 showed a Kd in [11] of 17 nM.

B31: ODY-N2001Hu1 (antibody, V domains shown)
VH: B22 VH with R28K, G35A, E52D, G54D, P57T
Turning to B31, in [8], the affinity, expressed as Kd, was 18 nM.

B32: ODY-N1974Hu1 (antibody, V domains shown)
VH: B22 VH with R28K, G35A, I51V, E52D, P57T, V78T, K96N, T97A, Y100N
The molecule B32 gave a Kd in [10] of 20 nM.

B33: human CD25 (receptor)
chain: T1 chain
As to B33, in the experiment with 83B05Hu1_A, the Kd came out at 76 nM.
